Experimental findings from patent US20240043507A1 are described below.

For experiment [1], the target named is spike protein of SARS-CoV-2 strain B.1.351 (SARS-CoV-2) (UniProt P0DTC2). As to the kind of experiment: cell-based or functional assay.
Experiment [2] deals with SARS-CoV-2 spike receptor binding domain K417T (SARS-CoV-2) (UniProt P0DTC2). The experiment is described as follows: BLI, RBD on AR2G biosensor, mAb as analyte.
Experiment [3] concerns the target SARS-CoV-2 receptor binding domain with N501Y (SARS-CoV-2) (UniProt P0DTC2). As to the kind of experiment: BLI, RBD immobilised on AR2G biosensor, 1:1 fit.
In experiment [4] the target is SARS-CoV-2 spike protein on authentic virus, strain B.1.1.7 (SARS-CoV-2) (UniProt P0DTC2). The experiment is described as follows: cell-based or functional assay.
Experiment [5] has as its target SARS-CoV-2 spike protein on authentic virus, strain SARS-CoV-2/human/AUS/VIC01/2020 (Victoria) (SARS-CoV-2) (UniProt P0DTC2). The experiment is described as follows: cell-based or functional assay.

In experiment [1], AZD1061 (antibody) showed an IC50 (FRNT, live virus neutralisation) of 0.014 µg/mL. In addition, the dissociation constant Kd in experiment [2] is 8 nM. On to “AZD1061 as tested by BLI (Fab by the footnote of Table 12)”, for which the Kd in experiment [3] was 1.41 nM. This counts as single-digit nanomolar. For the substance “AZD7442 (a combination of AZD1061 and AZD8895)”, in experiment [4], the B.1.1.7/Victoria Ratio of IC50 was 0.77 and the IC50 (ug/ml), FRNT was 0.007 µg/mL. In experiment [5], this substance displayed an IC50 (ug/ml), FRNT of 0.009 µg/mL. As for AZD8895 (antibody), in experiment [1], the IC50 (FRNT, live virus neutralisation) was determined as 0.046 µg/mL.

“AZD8895 as tested by BLI (Fab by the footnote of Table 12)” displayed a Kd in experiment [3] of 2.44 nM. For the substance REGN10933 (antibody), in experiment [1], the IC50 (FRNT, live virus neutralisation) was found to be 3.28 µg/mL.

“REGN10933 as tested by BLI (Fab by the footnote of Table 12)” yielded a Kd in experiment [3] of 2.75 nM.

REGN10987 (antibody) registered an IC50 (FRNT, live virus neutralisation) in experiment [1] of 0.007 µg/mL.

As to “REGN10987 as tested by BLI (Fab by the footnote of Table 12)”, in experiment [3], the Kd was 3.09 nM. This counts as single-digit nanomolar.
